This note sets out measurements from patent US20240209029A1, “ADIPONECTIN GLYCOPEPTIDES AND COMPOSITIONS AND METHODS OF USE THEREOF” (The University of Hong Kong, priority 2021, published 2024).

The subject of the assay is MDA-MB-231 cells. Briefly: Cancer cell proliferative assay (anti-proliferative activity, manual cell counting). The class given is cell-based, human. How it is done: FIGS. 3A-3B are bar graphs showing the Emax (FIG. 3A) and EC50 (FIG. 3B) of adiponectin or peptides with no glycans (hAdn-WM), or mono-, di-, tri- and tetra-glycans. The glyACD and adiponectin elicit synergistic anti-proliferative activity in human MDA-MB-231 cells. After serum starvation for 24 hours, MDA-MB-231 cells were treated with different concentrations of hAdn-WM, glyACD, full-length human adiponectin, or their combinations. After incubation for another 24 hours, cells were harvested for manual counting. FIG. 3C is a graph showing the inhibition rate on MDA-MB-231 cells of the indicated peptides. MDA-MB-231 cells were treated with different concentrations of adiponectin in the absence or presence of low (2.5 μg/ml) or high (20 μg/ml) doses of hAdn-WM or hAdn-WM656877101. FIG. 3D is a heatmap showing the percentage inhibition on cell growth. MDA-MB-231 cells were treated with 0, 0.22, 0.33, 0.49, 0.74, 1.11, 1.67, 2.5 μg/ml adiponectin in combination with 0, 0.3125, 0.625, 1.25, 2.5, 5, 10, 20 μg/ml hAdn-WM or hAdn-WM656877101. The percentage inhibition on cell growth was calculated and indicated by different intensity of the blue color. Data are presented as mean±SEM (n=6). *, P<0.05 vs full-length human adiponectin; ♦, P<0.05 vs peptide with no glycans (hAdn-WM); ▴, P<0.05 vs peptide with tetra-glycans (hAdn-WM656877101).
MDA-MB-231 cells were cultured in DMEM supplemented with 10% FBS and 1% penicillin-streptomycin-fungisone at 37° C. and under 5% CO2 95% humidified air. After harvesting, cells were seeded at a density of 3000 cells per well in 96-well plates and then cultured for 24 hours. After fasting in DMEM with 0.5% FBS for 24 hours, cells were subsequently stimulated with 2.5% FBS in the presence of peptides, human adiponectin or other drugs. The viable cell numbers at 24 hours at different doses were manually counted by mixing with trypan blue dye for analysis. The maximum inhibition rate (Emax) and half maximal effective concentration (EC50) were used to evaluate the anti-tumor activity of peptides and adiponectin. […]

Setting [1] is: 24 hours incubation, viable cells manually counted.

B1: hAdiponectin: full-length human adiponectin, circulating glycoprotein hormone of 244 amino acids (SEQ ID NO:1) (protein, listed as Homo sapiens)
chain: MLLLGAVLLLLALPGHDQETTTQGPGVLLPLPKGACTGWMAGIPGHPGHNGAPGRDGRDGTPGEKGEKGDPGLIGPKGDIGETGVPGAEGPRGFPGIQGRKGEPGEGAYVYRSAFSVGLETYVTIPNMPIRFTKIFYNQQNHYDGSTGKFHCNIPGLYYFAYHITVYMKDVKVSLFKKDKAMLFTYDQYQENNVDQASGSVLLHLEVGDQVWLQVYGEGERNGLYADNDNDSTFTGFLLYHDTN
One may read the EC50 as the concentration at which the effect is half-maximal. For the molecule B1, under setting [1], the “EC50” value amounted to 0.33 ± 0.11 µg/mL and the “Emax (%) maximum inhibition rate” value is 69.3 ± 3.34%. Moreover, the “Emax of human adiponectin” value (adiponectin alone (absence of peptide), FIG. 3C) came out at 66.7±4.29%.
